Measurements as given in paper PMC3799435, “Dissecting the interactions of SERRATE with RNA and DICER-LIKE 1 in Arabidopsis microRNA precursor processing” (Nucleic Acids Research, 2013).

Tests used:
SEΔ497-547 = target: T1, SEΔ497-547 (Arabidopsis thaliana, UniProt Q9ZVD0 1-720, del497-547); experiment: SPR; 50 mM NaCl, 20 nM; as wild-type SE; SPR (Biacore T100): 20 mM Tris-HCl pH 7.0, 50 or 150 mM NaCl, 2 mM β-ME (0.005% P20 for SE variants); proteins 42-43 nM (Fig 2E), SE 20 nM (Fig 4), 16 nM DCL1 for complex; temperature not stated; settings: protein: recombinant; tags: N-terminal His6; vector also has inserted myc and Strep-tag II; label: 5'-biotin on strand 1; fork: 40 bp duplex; 20-nt 3' tail of strand 1 and 20-nt 5' tail of strand 2 unpaired; other end blunt
T1 sequence: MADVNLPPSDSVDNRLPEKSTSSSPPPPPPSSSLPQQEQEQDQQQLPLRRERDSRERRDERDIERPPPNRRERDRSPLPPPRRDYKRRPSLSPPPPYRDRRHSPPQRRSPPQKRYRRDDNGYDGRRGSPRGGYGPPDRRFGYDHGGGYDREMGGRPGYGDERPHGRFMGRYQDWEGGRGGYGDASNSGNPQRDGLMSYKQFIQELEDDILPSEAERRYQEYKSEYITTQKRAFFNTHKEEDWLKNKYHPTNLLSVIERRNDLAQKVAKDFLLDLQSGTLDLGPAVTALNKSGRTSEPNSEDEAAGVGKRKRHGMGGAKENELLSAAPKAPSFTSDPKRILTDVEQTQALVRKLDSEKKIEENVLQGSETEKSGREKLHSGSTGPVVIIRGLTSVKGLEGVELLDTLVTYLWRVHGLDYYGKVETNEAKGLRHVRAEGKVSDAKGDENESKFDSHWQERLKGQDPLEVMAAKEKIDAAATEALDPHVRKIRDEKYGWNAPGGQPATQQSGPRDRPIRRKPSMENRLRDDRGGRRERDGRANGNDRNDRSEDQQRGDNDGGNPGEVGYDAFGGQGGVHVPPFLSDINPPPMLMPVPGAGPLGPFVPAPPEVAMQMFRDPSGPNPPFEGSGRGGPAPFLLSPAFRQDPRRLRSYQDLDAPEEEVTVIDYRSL

SE1-701 = target: T2, SE1-701 (Arabidopsis thaliana, UniProt Q9ZVD0 1-701, del702-720); experiment: as above; settings: protein: recombinant; tags: N-terminal His6; vector also has inserted myc and Strep-tag II; label: 5'-biotin on strand 1; fork: 40 bp duplex; 20-nt 3' tail of strand 1 and 20-nt 5' tail of strand 2 unpaired; other end blunt
T2 sequence: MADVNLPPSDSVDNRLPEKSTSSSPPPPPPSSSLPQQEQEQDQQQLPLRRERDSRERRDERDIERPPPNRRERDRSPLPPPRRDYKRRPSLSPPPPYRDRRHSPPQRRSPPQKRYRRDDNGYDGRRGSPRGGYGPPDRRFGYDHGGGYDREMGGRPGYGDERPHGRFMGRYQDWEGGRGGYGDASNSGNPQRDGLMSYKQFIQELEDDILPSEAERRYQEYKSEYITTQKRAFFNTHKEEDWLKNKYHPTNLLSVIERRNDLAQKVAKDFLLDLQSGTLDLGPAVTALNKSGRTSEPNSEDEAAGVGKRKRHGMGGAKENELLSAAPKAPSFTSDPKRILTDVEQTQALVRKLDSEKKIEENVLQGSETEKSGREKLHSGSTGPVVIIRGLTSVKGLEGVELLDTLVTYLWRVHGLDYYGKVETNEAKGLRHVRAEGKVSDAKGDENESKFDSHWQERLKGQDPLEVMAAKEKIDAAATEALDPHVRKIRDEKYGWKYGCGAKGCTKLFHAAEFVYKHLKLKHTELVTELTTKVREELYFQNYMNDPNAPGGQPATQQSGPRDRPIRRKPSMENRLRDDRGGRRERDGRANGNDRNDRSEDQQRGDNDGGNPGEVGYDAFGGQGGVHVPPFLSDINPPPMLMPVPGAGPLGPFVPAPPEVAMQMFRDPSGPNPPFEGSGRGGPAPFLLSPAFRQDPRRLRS

DCL1;SE1-701 = DCL1;SE1-701 (Arabidopsis thaliana;Arabidopsis …, UniProt Q9SP32;Q9ZVD0 1-1909;1-701, |del702-720); experiment: SPR; SE1-701 injected on preformed DCL1/RNA complex, 50 mM NaCl; as wild-type SE; SPR (Biacore T100): 20 mM Tris-HCl pH 7.0, 50 or 150 mM NaCl, 2 mM β-ME (0.005% P20 for SE variants); proteins 42-43 nM (Fig 2E), SE 20 nM (Fig 4), 16 nM DCL1 for complex; temperature not stated; settings: protein: recombinant;recombinant; tags: none (His6-StrepII-SUMOstar removed);N-terminal His6; vector also has inserted myc and Strep-tag II; label: 5'-biotin on strand 1; fork: 40 bp duplex; 20-nt 3' tail of strand 1 and 20-nt 5' tail of strand 2 unpaired; other end blunt
SE (His-tagged) = target: T3, SE (His-tagged) (Arabidopsis thaliana, UniProt Q9ZVD0 1-720); experiment: SPR; 50 mM NaCl, 20 nM protein; SPR (Biacore T100): 20 mM Tris-HCl pH 7.0, 50 or 150 mM NaCl, 2 mM β-ME (0.005% P20 for SE variants); proteins 42-43 nM (Fig 2E), SE 20 nM (Fig 4), 16 nM DCL1 for complex; temperature not stated; settings: protein: recombinant; tags: N-terminal His6; vector also has inserted myc and Strep-tag II; label: 5'-biotin on strand 1; fork: 40 bp duplex; 20-nt 3' tail of strand 1 and 20-nt 5' tail of strand 2 unpaired; other end blunt
T3 sequence: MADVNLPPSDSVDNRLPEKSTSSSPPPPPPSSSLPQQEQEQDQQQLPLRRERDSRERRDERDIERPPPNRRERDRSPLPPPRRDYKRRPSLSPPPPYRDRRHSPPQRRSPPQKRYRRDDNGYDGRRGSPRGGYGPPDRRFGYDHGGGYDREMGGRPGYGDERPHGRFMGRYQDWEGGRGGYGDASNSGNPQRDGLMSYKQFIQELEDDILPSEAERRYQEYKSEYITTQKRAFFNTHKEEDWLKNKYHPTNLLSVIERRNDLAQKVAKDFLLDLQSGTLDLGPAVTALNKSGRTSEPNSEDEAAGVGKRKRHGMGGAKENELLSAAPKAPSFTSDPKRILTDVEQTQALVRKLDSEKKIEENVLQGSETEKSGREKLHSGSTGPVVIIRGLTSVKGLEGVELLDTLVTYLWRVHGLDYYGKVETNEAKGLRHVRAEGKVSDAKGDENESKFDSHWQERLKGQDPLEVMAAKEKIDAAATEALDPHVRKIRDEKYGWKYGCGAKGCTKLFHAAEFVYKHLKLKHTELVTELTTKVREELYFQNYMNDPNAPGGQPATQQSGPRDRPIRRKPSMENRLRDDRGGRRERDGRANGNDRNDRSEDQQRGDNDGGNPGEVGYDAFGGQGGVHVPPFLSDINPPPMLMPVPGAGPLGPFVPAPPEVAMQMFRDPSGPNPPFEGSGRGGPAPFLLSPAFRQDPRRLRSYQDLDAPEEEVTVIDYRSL

Measured: binding result

Chain of DCL1;SE1-701 (Q9SP32 whole entry, stated change not applied, one chain of several): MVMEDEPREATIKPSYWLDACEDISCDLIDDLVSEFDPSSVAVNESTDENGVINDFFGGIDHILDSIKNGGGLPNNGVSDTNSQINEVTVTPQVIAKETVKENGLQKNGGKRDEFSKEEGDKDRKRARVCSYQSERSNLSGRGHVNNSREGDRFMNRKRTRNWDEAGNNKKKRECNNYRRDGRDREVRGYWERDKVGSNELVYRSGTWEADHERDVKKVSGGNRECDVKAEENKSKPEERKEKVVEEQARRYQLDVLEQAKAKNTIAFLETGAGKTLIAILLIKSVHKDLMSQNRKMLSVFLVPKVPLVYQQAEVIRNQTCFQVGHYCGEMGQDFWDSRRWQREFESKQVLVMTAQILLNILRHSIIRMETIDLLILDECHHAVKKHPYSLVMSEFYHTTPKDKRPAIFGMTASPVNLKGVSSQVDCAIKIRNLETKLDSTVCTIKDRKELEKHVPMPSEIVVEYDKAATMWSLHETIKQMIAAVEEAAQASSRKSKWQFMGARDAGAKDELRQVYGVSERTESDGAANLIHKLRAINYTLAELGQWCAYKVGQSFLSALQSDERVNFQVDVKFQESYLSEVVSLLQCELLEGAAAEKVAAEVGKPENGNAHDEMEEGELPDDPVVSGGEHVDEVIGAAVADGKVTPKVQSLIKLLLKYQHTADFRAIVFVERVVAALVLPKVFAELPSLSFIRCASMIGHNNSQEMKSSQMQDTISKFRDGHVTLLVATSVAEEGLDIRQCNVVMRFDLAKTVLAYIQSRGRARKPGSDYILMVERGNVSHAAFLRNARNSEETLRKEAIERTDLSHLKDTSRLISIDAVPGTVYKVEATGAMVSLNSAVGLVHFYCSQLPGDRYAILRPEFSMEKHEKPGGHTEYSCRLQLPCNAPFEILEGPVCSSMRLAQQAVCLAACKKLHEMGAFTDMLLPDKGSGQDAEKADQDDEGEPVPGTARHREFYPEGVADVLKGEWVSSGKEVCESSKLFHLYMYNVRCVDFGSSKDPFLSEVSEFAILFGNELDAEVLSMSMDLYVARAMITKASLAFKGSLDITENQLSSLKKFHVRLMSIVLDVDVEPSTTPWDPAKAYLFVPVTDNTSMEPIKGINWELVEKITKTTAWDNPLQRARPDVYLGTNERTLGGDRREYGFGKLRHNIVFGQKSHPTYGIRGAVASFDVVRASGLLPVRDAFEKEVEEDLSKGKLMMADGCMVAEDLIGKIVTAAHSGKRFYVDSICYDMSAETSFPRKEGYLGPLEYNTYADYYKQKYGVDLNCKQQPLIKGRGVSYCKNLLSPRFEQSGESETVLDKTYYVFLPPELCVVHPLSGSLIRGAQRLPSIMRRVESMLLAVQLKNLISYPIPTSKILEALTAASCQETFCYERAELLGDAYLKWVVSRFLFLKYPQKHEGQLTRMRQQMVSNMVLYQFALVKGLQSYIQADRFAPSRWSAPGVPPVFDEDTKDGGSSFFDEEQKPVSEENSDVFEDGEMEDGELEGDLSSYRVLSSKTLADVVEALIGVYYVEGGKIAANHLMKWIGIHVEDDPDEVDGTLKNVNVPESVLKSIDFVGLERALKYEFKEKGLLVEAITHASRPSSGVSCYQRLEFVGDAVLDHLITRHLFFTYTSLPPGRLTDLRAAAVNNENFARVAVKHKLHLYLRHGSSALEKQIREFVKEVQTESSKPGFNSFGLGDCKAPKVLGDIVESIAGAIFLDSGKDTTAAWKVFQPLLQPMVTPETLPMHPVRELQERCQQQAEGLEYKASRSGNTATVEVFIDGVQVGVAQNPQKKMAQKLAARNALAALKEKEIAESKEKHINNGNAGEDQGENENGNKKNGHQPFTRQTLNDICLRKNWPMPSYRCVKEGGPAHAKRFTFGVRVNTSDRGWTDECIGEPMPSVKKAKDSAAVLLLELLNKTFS

B1: forked-RNA (dsRNA)
RNA 1: CAACCCAAGAUAGAUCAUGCAGGCAGCUUCAUCAGAUGCCGCUCCCUCUUUUUUUCUCUA
RNA 2: GCUCCCUCUUUUUUUCUCUAGGCAUCUGAUGAAGCUGCCUGCAUGAUCUAUCUUGGGUUG
binds: all assays above
